# Data as given in patent US20220135694A1, “NOVEL CD40-BINDING ANTIBODIES” (LAVA THERAPEUTICS B.V., priority 2019, published 2022).
# B1: V19S76K-5C8: tag-less bispecific anti-CD40-anti-Vγ9Vδ2-TCR VHH, SEQ ID NO:23 (protein)
# VHH: QVQLQESGGGLVQAGGSLRLSCAASGRTFGRSAMGWFRQAPGKEREFVAAIGTRGGSTKYADSVKGRFTISTDNAKNTVYLQMDSLKPEDTAVYRCAVRGPGYPSAAIFQDEYHYWGQGTQVTVSSGGGGSEVQLVESGGGLVQAGGSLRLSCAASGRPFSNYAMGWFRQAPGKEREFVAAISWSGGSTSYADSVKGRFTISRDNAKNTVYLQMNSPKPEDTAIYYCAAQFSGADYGFGRLGIRGYEYDYWGQGTQVTVSS
# modifications: antibody sequence
# How the values were obtained:
# CD40 [1] = molecular target: T1, CD40 (Homo sapiens, UniProt P25942); test: CD40 agonistic activity in primary CLL cells, 48 h, flow cytometry; assay type: cell-based; conditions: FIG. 7A-C
# T1 construct: Primary chronic lymphocytic leukemia (CLL) cells express CD40 on the cell surface; endogenous in cells; host or cells: primary CLL PBMCs from untreated CLL patients
# Procedure: PBMCs (≥90% CD5^+CD19^+) from untreated CLL patients were obtained and cryopreserved as described in Example 3. Thawed cells were kept in complete IMDM.
# To assess whether binding of the VHH to CD40 has agonistic effects, primary CLL PBMCs were cultured for 48 hours in the presence of VHH, medium control or recombinant multimeric CD40 ligand (rmCD40L; 100 ng/mL, Bioconnect).
# After 48 hours, cells were harvested, washed and incubated with AF700-conjugated anti-CD19 (557921), FITC-conjugated anti-CD80 (6109965), APC-conjugated anti-CD86 (555660, all BD Biosciences), PE-conjugated anti-CD5 (12-0059-42, Thermo Fisher Scientific) and PECy7-conjugated anti-CD95 (305621, Biolegend, San Diego, Calif., USA) antibodies for 20 minutes at 4° C. Alternatively, after 48 hours, cells were harvested and viability was measured using Mitotracker Orange (25-minute incubation at 37° C.) and To-pro-3 (10-minute incubation at room temperature; both Thermo Fisher Scientific). Samples were measured on a FACSCanto cytometer (BD Biosciences) and analyzed with Flowjo MacV10.
# To assess whether binding of the VHH has agonistic effects, primary CLL PBMCs were cultured with the indicated concentrations of V19S76K-5C8, medium control or rmCD40L for 48 hours and analyzed by flow cytometry as described in Example 4.
# CD40 [2] = molecular target: T1, CD40; test: CD40 antagonistic activity in primary CLL cells: pre-incubation, then rmCD40L for 48 h; assay type: cell-based; conditions: pre-incubation, then rmCD40L for 48 hours; FIG. 8A-C
# Procedure: PBMCs (≥90% CD5^+CD19^+) from untreated CLL patients were obtained and cryopreserved as described in […]. Thawed cells were kept in complete IMDM.
# To test whether the VHH antagonizes CD40 stimulation, primary CLL PBMCs were pre-incubated with VHH or medium control for 30 minutes at 37° C. and subsequently cultured for 48 hours in the presence of rmCD40L (100 ng/mL).
# After 48 hours, cells were analyzed by flow cytometry as described in Example 4.
# To assess whether binding of the VHH has antagonistic effects, primary CLL PBMCs were pre-incubated with V19S76K-5C8 or medium control and then cultured with rmCD40L for 48 hours and analyzed by flow cytometry as described in Example 5.
# [3] = test system: CD40-transfected HEK293T cells; test: Cytotoxicity assay: CD40-transfected HEK293T target cells with Vγ9Vδ2-T cells; assay type: cell-based, human
# Procedure: HEK293T cells, either wildtype (WT) or transfected with human CD40, were grown as described in Example 2. Vγ9Vδ2-T cells were grown as described in Example 7.
# The cytotoxicity experiment, viability measurement and flow cytometry were performed as described in Example 12.
# [4] = test system: CD40-stimulated CLL cells; test: Cytotoxicity against CLL cells cultured on 3T3 or CD40L+ 3T40L fibroblasts; assay type: cell-based, human; conditions: with Vγ9Vδ2-T cells 1:1, V19S76K-5C8 100 nM; 3T3 versus 3T40L; FIG. 14
# Procedure: Primary CLL cells were obtained, cryopreserved and thawed as described in Example 3. 3T3 fibroblasts, either WT or transfected with human CD40L (3T40L), were grown in complete IMDM. Vγ9Vδ2-T cells were grown as described in Example 7.
# Primary CLL cells were cultured for 72 hours on irradiated 3T3 or 3T40L fibroblasts to induce CD40 stimulation.
# Cells were then harvested and cultured overnight either with venetoclax (10 nM) as described in Example 10, or with Vγ9Vδ2-T cells and V19S76K-5C8 as described in Example 12. Viability measurement and flow cytometry were performed as described in Example 10.
# [5] = test system: Vγ9Vδ2-T cells from CLL patients; test: Cytokine and degranulation assay: autologous Vγ9Vδ2-T cells from CLL patients; assay type: cell-based, human; conditions: 10 nM, overnight with autologous CLL cells
# Procedure: PBMCs from CLL patients were obtained, cryopreserved and thawed as described in Example 3.
# CLL PBMCs were partially depleted of CD19^+ CLL cells using magnetic beads (130-050-301, Miltenyi Biotec. ±50% of the PBMCs were CD19^+ after CD19 depletion). PBMCs were then cultured overnight with V19S76K-5C8 (10 nM) or medium control in the presence of Brefeldin A, GolgiStop and anti-CD107a to measure cytokine production and degranulation as described in Example 11. In contrast to Example 11, surface staining included PE-conjugated anti-Vγ9-TCR (2256535, Sony) and FITC-conjugated goat-anti-Ilama IgG-heavy and light chain antibodies (A160-100F, Bethyl Laboratories Inc.)
# MM.1s cells = assay type: in vivo, mouse
# Procedure: FIG. 18: The bispecific […] VHH prolongs survival in vivo. Immunodeficient NSG mice were irradiated on day −1 and grafted (i.v.) with 2.5*10^6 MM.1s cells on day 0. Mice received PBS or human Vγ9Vδ2-T cells (1*10^7 cells; both i.v.) on days 7, 14 and 21 followed by PBS or V19S76K-5C8 (VHH; 5 mg/kg; both i.p.) twice weekly starting on day 9. (A) Schematic overview of treatment schedule. (B) Kaplan-Meier analyses of mouse survival (control: n=6; V19S76K-5C8 (VHH): n=6, Vγ9Vδ2-T cells: n=8, Vγ9Vδ2-T cells+V19S76K-5C8 (VHH): n=8). CD40 expression on MM.1s cells (human CD45^+CD38^+ cells) in the (C) bone marrow (BM) and (D) plasmacytomas at the time of sacrifice. (E) Body weight after 7 weeks of treatment relative to individual body weight at time of tumor injection. **P<0.01, ***P<0.001. Data are presented as mean and SD. (B: Mantel-Cox logrank test followed by Holm-Sidak's post hoc test, C: one-way ANOVA followed by Dunnett's post hoc test compared to control mice, D: unpaired t-test).
# To study the effects of the bispecific VHH on tumor growth in vivo, immunodeficient NSG mice were injected with cells of MM.1s, a human multiple myeloma cell line. The tumor cells were allowed to grow out and engraft for 1 week before mice received the first of three weekly i.v. injections with either human Vγ9Vδ2-T cells or PBS, followed by twice weekly i.p. injections with V19S76K-5C8 or PBS (FIG. 18A).
# T1 sequence (P25942 21-277): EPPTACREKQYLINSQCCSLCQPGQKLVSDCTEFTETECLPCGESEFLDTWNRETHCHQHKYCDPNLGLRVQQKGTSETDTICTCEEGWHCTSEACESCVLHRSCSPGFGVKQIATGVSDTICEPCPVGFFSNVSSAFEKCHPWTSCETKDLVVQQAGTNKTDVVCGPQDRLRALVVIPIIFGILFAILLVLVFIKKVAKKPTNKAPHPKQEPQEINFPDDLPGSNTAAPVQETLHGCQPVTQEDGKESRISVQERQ
molecule,measurement,setting,value
B1,"CD40 stimulation (expression of CD80, CD86 and CD95)",CD40 [1],"none of the V19S76K-5C8 concentrations tested increased the expression of CD80, CD86 or CD95"
same,"prevention of the effects of CD40 stimulation (CD80, CD86 and CD95 expression)",CD40 [2],prevented the effects of CD40 stimulation in a dose-dependent manner
same,lysis of CD40-transfected HEK293T cells,"[3]; overnight with Vγ9Vδ2-T cells, 1:1 ratio, FIG. 12",strongly enhanced
same,lysis of either WT or CD40-transfected HEK293T cells,[3]; without Vγ9Vδ2-T cells,did not induce lysis
same,cytotoxicity in unstimulated versus CD40-stimulated CLL cells,[4],induced cytotoxicity in unstimulated and CD40-stimulated CLL cells to a similar extent
same,"production of IFN-γ, TNF-α and IL-2 by Vγ9Vδ2-T cells from CLL patients",[5]; FIG. 15A-C,produced the cytokines IFN-γ
same,Vγ9Vδ2-T cell degranulation (CD107a expression),[5]; FIG. 15D,induced Vγ9Vδ2-T cell degranulation
same,median overall survival,"MM.1s cells; V19S76K-5C8 5 mg/kg i.p. twice weekly plus human Vγ9Vδ2-T cells i.v., control group 47 days, FIG. 18B",80 days
same,overall survival,"MM.1s cells; V19S76K-5C8 alone, without Vγ9Vδ2-T cells, FIG. 18B",Neither V19S76K-5C8 alone or the Vγ9Vδ2-T cells alone significantly improved overall survival
same,overall survival versus control group,"MM.1s cells; V19S76K-5C8 plus Vγ9Vδ2-T cells, FIG. 18B",lived significantly longer
same,CD40 expression on malignant cells in the bone marrow versus control mice,"MM.1s cells; V19S76K-5C8 plus Vγ9Vδ2-T cells, at time of sacrifice, FIG. 18C",significantly lower
same,CD40 expression on malignant plasma cells in plasmacytomas,"MM.1s cells; V19S76K-5C8 plus Vγ9Vδ2-T cells, at time of sacrifice, FIG. 18D",A similar trend was observed
